One experiment deals with T1, pCD163-SRCR4-7-huFc (porcine, UniProt Q2VL90 372-818, limits assumed).
T1 construct: also called pCD163:SRCR4-7-Fc; pCD163-SRCR4-7-Fc; not shown: human Fc (huFc)
Nature of the experiment: ELISA, periplasmic extract on coated antigen. In general terms: ELISA stands for enzyme-linked immunosorbent assay.

In experiment [1] the target is T2, native membrane bound porcine CD163 on primary porcine alveolar macrophages (porcine, UniProt Q2VL90 47-1115).
T2 construct: also called PAM CD163-WT; pPAM
T2 sequence: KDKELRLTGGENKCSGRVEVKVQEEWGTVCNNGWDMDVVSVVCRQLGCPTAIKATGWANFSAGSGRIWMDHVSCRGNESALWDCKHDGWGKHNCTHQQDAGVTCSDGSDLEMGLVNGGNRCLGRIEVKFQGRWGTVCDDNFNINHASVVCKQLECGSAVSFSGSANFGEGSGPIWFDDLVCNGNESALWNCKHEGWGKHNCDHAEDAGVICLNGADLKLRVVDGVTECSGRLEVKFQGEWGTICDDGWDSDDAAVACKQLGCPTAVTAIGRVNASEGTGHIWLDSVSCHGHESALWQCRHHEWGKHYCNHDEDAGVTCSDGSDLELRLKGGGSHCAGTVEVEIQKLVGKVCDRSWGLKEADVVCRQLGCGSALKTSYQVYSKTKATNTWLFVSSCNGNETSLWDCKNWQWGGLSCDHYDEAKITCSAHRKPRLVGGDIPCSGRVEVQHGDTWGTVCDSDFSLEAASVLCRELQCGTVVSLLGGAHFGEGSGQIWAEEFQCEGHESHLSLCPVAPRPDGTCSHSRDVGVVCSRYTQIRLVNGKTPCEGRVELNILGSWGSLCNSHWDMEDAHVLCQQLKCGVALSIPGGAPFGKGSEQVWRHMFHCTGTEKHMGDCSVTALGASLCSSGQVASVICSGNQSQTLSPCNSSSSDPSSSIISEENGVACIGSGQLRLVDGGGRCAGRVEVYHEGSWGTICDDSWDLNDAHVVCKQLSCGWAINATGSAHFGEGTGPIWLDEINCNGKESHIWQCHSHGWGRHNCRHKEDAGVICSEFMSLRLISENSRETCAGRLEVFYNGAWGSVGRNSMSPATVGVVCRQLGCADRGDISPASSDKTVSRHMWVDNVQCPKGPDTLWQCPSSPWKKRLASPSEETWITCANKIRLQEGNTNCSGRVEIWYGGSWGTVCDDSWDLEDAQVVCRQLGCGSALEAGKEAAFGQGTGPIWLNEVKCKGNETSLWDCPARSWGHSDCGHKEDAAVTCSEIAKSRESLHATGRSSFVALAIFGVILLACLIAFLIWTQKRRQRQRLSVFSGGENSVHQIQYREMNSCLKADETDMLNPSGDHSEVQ
Put plainly: flow cytometry, PAM CD163-WT, 4C. The protocol:
(§1) Periplasmic Extract (P.E) from the selected clones were incubated with anti-c-myc antibody (Roche; Cat. nr. 11667203001), specific to the c-myc tag present in the soluble VHH, for 30 minutes with agitation at room temperature (RT). The mix (P.E + anti-c-myc antibody) was added to the pPAM or pPAMΔ5 domain (cells with deletion of SRCR domain 5) and incubated for 60 min at 4° C. with gentle shaking.
(§2) Cells were washed 3x with 150 µl/well of FACS Buffer and incubated with 50 µl/well of the secondary antibody GAM-APC for 30 min at 4° C. and protected from the light, with shaking.

For experiment [2], the target named is T3, porcine CD163 with deletion of SRCR domain 5 on porcine alveolar macrophages (porcine, UniProt Q2VL90 47-1115).
T3 construct: also called PAM CD163-d5; pPAMΔ5 domain
T3 sequence: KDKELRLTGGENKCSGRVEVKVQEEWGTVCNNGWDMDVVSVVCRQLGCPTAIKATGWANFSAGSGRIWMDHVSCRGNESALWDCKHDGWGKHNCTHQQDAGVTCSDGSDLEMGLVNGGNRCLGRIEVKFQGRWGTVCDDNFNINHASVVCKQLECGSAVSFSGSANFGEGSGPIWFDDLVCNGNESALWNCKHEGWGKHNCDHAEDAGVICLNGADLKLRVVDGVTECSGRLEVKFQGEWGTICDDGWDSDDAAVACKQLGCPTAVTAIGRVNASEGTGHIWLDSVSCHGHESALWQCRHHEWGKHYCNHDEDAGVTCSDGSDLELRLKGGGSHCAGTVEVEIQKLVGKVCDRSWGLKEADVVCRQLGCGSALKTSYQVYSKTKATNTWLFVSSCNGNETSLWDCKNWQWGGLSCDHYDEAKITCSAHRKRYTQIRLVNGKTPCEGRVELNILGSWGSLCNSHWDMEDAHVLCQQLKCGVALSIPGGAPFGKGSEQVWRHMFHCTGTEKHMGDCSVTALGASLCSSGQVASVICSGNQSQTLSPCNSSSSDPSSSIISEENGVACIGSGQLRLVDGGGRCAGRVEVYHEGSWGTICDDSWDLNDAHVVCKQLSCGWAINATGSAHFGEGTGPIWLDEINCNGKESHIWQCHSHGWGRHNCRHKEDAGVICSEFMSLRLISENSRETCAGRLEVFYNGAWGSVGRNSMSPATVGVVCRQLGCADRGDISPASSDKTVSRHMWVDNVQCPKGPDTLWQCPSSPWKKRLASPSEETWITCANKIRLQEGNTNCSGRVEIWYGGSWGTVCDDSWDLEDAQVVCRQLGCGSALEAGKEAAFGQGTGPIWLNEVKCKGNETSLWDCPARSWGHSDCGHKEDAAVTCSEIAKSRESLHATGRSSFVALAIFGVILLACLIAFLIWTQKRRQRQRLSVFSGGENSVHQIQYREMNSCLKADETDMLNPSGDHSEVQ
Nature of the experiment: flow cytometry, PAM CD163-d5. Here is the method: as §1, §2
On the technique in general: In flow cytometry, cells or beads pass a laser one at a time.

Experiment [3] has as its target T2, native membrane bound porcine CD163 on …. Put plainly: flow cytometry, PAM CD163-WT, RT.

B1: VHH 017 (3D03) (VHH)
VHH: QLQLVESGGGLVQPGGSLRLSCAASGFTLDDYTIGWFRQAPGKEREGVSCINSITSNTYYADSVKGRFTISRDNAKNTVYLQMNSLTAEDTAIYYCAADSGLFSGSSCLKYRAMRFGSWGQGTQVTVSS
notes: Llama single domain antibody; also called 29(#17); VHCDR3 29(#17); not shown: tags: c-myc tag in periplasmic extract (ELISA, FACS); FLAG and His tags in purified VHH (SPR, infection assays)
As to B1, the “O.D. 450” value with pCD163-SRCR4-7-huFc stood at 0.116 O.D. 450. In addition, the “% Binding” value in experiment [1] came to 95.3%; in experiment [2], 2.14%; in experiment [3] it was 37.2%. Moreover, the MFI in experiment [1] came out at 13500 MFI; in experiment [2], 1450 MFI; in experiment [3], 2290 MFI.
